The values below come from paper PMC6902028, “Elucidating the Immune Evasion Mechanisms of Borrelia mayonii, the Causative Agent of Lyme Disease” (Frontiers in Immunology, 2019).

The assay addresses T1, complement regulator factor H (FH) (human, UniProt P08603 19-1231).
T1 construct: source: bought: Complement Technology (purified); native, in non-immune human serum (NHS, NHS-EDTA)
Kind of assay: ELISA; CspA of B. mayonii MN14-1420 (5 μg/ml) immobilised, increasing concentrations of FH; non-linear regression, one-site specific binding model. Particulars: both partners purified. Background: An ELISA detects its analyte on a solid surface through an enzyme-linked reagent.

T1 sequence (P08603 19-1231): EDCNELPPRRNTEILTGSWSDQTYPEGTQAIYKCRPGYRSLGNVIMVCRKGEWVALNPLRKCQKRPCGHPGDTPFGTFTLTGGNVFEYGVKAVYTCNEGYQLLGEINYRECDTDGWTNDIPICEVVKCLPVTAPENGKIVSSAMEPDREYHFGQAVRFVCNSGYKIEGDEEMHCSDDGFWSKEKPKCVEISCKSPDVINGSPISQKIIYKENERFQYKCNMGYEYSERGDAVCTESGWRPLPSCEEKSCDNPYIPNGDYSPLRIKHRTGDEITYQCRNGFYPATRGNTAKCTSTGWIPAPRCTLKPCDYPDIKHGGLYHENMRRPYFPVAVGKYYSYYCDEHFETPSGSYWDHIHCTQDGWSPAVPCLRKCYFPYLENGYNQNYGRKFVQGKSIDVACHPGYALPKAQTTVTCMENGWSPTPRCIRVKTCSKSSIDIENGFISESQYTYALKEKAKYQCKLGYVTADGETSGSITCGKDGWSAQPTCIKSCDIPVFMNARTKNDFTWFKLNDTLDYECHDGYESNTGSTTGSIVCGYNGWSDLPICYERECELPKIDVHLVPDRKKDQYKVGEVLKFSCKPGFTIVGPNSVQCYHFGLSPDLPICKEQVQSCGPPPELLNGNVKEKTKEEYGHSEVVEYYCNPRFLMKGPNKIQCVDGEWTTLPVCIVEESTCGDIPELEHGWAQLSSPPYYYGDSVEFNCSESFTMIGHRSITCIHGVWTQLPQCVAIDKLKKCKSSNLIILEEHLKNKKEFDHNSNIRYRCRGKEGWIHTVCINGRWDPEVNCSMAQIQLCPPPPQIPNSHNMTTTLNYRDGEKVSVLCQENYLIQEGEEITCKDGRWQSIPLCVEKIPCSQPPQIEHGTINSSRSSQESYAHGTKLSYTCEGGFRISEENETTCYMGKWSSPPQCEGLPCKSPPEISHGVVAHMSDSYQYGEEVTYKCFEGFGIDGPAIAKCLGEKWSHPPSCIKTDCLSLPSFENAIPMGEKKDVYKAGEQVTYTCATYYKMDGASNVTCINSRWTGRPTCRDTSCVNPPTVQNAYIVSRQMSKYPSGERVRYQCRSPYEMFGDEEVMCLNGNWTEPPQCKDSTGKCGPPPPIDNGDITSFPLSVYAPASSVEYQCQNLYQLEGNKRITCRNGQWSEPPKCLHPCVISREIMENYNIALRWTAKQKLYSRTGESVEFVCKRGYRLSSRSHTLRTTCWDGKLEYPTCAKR

B1: His6-tagged CspA of B. mayonii MN14-1420 (CspA-like protein Bmayo_04535) (natural protein)
chain: TANPIDPKANGNIKPKNNINTKKNTNLEKNTQNFENESENPRSYNQKLLEATIKELKVIGKNLEDQRKEENIQIAKIVDEKFDFLGTFKVGPYDIIEENQQMKMKRIIYSSLNYKKEKIETLKEILETLKNNPEHQYIAGRLANLSWSIQFKIDDNFETIQNGVDNLDQEKSESLLMRAKSNLQLKERFKKTLNETLEAYSQNAQNIKNDIGILAEHVNKYYKYSDSLKPIFY
notes: also called CspA orthologous protein of B. mayonii; CspA ortholog; not shown: His6, N-terminal, kept
The term Kd denotes the equilibrium constant for the complex coming apart. Regarding B1, the Kd was 5.6 ± 0.58 nM.
